Data as given in US20060222643A1 (Chugai, published 2006).

Legend:
[1] = molecular target: T1, GST fusion protein containing human Mpl MG8 (Gln26 to Pro217) (human, UniProt P40238 26-217); assay: Western blotting of GST fusion protein
T1 construct: As MG1; not shown: glutathione-S-transferase of vector pGEX-4T-3 (Amersham Biosciences)
T1 sequence: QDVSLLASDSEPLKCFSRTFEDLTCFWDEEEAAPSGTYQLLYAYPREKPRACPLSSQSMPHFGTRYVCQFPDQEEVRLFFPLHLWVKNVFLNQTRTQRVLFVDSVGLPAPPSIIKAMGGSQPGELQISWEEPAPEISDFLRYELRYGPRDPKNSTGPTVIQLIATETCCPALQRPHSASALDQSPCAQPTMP
Method: (§1) Since the anti-human Mpl antibody VB22B can be used for Western blotting, a GST-fusion protein containing a partial sequence of human Mpl was constructed for VB22B epitope analysis. MG1 (Gln26 to Trp491) and MG2 (Gln26 to Leu274) regions were each amplified by PCR, and cloned into pGEX-4T-3 (Amersham Biosciences) to be expressed as GST fusion proteins. The resulting plasmid DNAs were transformed into DH5α to give transformants. A final concentration of 1 mM IPTG was added to the transformants in their logarithmic growth phase to induce the expression of GST fusion proteins. The bacterial cells were harvested after two hours of incubation. The cells were lysed by sonication. The lysates were centrifuged in XL-80 Ultracentrifuge (Beckman, Rotor 70.1Ti) at 35,000 rpm for 30 min. The culture supernatants were removed, and then the fusion proteins were purified using GST Purification Modules (Amersham Biosciences). The samples were separated by 10%-SDS-PAGE, and then transferred onto a PVDF membrane. The membrane was analyzed by the murine antibody VB22B in Western Btotting.
(§2) Then, GST fusion proteins containing the respective regions of human Mpl: MG3 (Gln26 to Ala189), MG4 (Gln26 to Pro106), MG5 (Gln26 to Glu259), and MG6 (Gln26 to Gly245) were prepared and analyzed by Western blotting using the same procedure described above. […] In addition, GST was fused with MG7 (Gln26 to Ala231) and MG8 (Gln26 to Pro217) to prepare GST fusion proteins.

[2] = molecular target: T2, GST fusion protein containing human Mpl MG3 (Gln26 to Ala189) (human, UniProt P40238 26-189); assay: Western blotting of GST fusion protein
T2 construct: As MG1; not shown: glutathione-S-transferase of vector pGEX-4T-3 (Amersham Biosciences)
T2 sequence: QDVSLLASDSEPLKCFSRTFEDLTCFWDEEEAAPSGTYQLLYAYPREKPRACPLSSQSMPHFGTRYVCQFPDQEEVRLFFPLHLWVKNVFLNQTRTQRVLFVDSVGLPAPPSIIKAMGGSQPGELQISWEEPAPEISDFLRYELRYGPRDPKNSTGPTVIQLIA
Method: as §1, §2

[3] = molecular target: T3, GST fusion protein containing human Mpl MG4 (Gln26 to Pro106) (human, UniProt P40238 26-106); assay: Western blotting of GST fusion protein
T3 construct: As MG1; not shown: glutathione-S-transferase of vector pGEX-4T-3 (Amersham Biosciences)
T3 sequence: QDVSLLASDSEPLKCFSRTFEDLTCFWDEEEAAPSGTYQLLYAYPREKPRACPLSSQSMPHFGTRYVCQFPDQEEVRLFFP
Method: as §1, §2

[4] = molecular target: T4, human Mpl expressed on BaF3 cells (BaF3-human Mpl) (human, UniProt P40238 26-635); assay: cell-based or functional assay
T4 sequence: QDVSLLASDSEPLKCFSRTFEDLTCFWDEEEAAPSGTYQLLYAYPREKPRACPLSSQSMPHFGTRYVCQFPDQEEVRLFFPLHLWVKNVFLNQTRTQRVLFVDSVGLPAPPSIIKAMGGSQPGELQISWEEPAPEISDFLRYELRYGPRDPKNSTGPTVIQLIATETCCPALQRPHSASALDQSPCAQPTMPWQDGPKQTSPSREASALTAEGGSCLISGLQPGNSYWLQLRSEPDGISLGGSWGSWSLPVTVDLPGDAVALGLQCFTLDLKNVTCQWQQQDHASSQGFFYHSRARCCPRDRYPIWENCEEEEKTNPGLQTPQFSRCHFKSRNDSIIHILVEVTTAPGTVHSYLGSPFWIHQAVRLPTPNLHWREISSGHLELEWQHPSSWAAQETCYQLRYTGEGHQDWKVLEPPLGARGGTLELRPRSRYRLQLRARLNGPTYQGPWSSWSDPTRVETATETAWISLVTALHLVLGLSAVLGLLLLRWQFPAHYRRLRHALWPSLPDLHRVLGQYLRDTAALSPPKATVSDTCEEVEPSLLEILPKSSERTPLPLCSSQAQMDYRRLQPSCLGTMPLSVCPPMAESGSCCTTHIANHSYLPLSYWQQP

B1: anti-human Mpl antibody VB22B IgG (antibody, V domains shown)
VH: QVQLQQSGPELVKPGASVKISCKASGYAFTNSWMNWVKQRPGKGLEWIGRIYPGDGETIYNGKFRVKATLTADKSSSTAYMDISSLTSEDSAVYFCARGYDDYSFAYWGQGTLVTVSA
VL: DIVMTQAAPSIPVTPGESVSISCRSSKSLLHSNGNTYLYWFLQRPGQSPQLLIYRMSNLASGVPDRFSGSGSGTAFTLRISRVEAEDVGVYYCMQHIEYPFTFGSGTKLEIK
notes: also called murine antibody VB22B
**Q.** Does B1 bind [1]?
**A.** no binding

**Q.** Does B1 bind [2]?
**A.** no binding

**Q.** Does B1 bind [3]?
**A.** no binding

**Q.** And the “TPO-like agonistic activity, EC50 (growth of BaF3-human Mpl, WST-8)” value [4]?
**A.** > 30 nM
